Experimental data as given in article PMC3084784 (PLoS ONE, 2011).

Assays:
[1] = molecular target: HLA-A*0201 (heavy chain, β2m and peptide …) (human |  | human SARS-CoV); assay: SPR; details: both partners purified
[2] = molecular target: T1, HLA-G1 (heavy chain, β2m and peptide …) (human | , UniProt P17693-1 25-300; P61769 21-119); assay: SPR; BIAcore 3000; HLA-A*0201 (700 RU) or HLA-G1 (300 RU) immobilised by amine coupling on CM5 at pH 5.0, BSA as control surface; LILR injected; 25°C; 10 mM HEPES pH 7.4, 150 mM NaCl, 3 mM EDTA, 0.005% Tween-20; Kd by Scatchard analysis or nonlinear fit of a Langmuir isotherm; details: both partners purified
T1 construct: HLA-G1 heavy chain, recombinant; β2-microglobulin (β2m), from inclusion bodies; also called non-classical HLAI; copies: + +

B1: LILRA3 D1 (domain 1, residues 1-97) (domain or fragment)
chain: GPLPKPTLWAEPGSVITQGSPVTLRCQGSLETQEYHLYREKKTALWITRIPQELVKKGQFPILSITWEHAGRYCCIYGSHTVGLSESSDPLELVVTG
[1]
  Kd: 40.1 µM

B2: LILRA3 D1D2 (domain 1 and domain 2, residues 1-197) (domain or fragment)
chain: GPLPKPTLWAEPGSVITQGSPVTLRCQGSLETQEYHLYREKKTALWITRIPQELVKKGQFPILSITWEHAGRYCCIYGSHTVGLSESSDPLELVVTGAYSKPTLSALPSPVVTSGGNVTIQCDSQVAFDGFILCKEGEDEHPQCLNSHSHARGSSRAIFSVGPVSPSRRWSYRCYGYDSRAPYVWSLPSDLLGLLVP
[1]
  Kd: 28.5 µM

B3: LILRB2 D1D2 (domain or fragment, human)
chain: GTIPKPTLWAEPDSVITQGSPVTLSCQGSLEAQEYRLYREKKSASWITRIRPELVKNGQFHIPSITWEHTGRYGCQYYSRARWSELSDPLVLVMTGAYPKPTLSAQPSPVVTSGGRVTLQCESQVAFGGFILCKEGEDEHPQCLNSQPHARGSSRAIFSVGPVSPNRRWSHRCYGYDLNSPYVWSSPSDLLELLVPG
notes: LILRB2 (ILT4), domains 1 and 2 (D1D2); also called LILRB2 D1D2 monomer; ILT4 D1D2
[2]
  Kd: 5.62 µM
[1]
  Kd: 9.74 µM
